For assay [1], the target named is mouse IL-2 Rβγ on mouse primary NK cells (mouse) (UniProt P16297).
The target of assay [2] is recombinant human IL-2 (human) (UniProt P60568).
The target is the same in assay [3]. The source holds these as a separate data set.
For assay [4] the target is unchanged. The source holds these as a separate data set.
Assay [5] has the same target. The source holds these as a separate data set.
For assay [6] the target is unchanged. This is another data set of the same source.
Assay [7] has the same target. This is another data set of the same source.
The target is the same in assay [8]. This is another data set of the same source.
Assay [9] has the same target. This is another data set of the same source.
The next assay has as its target T1, rat IL-2 (rat, UniProt P17108).
T1 sequence: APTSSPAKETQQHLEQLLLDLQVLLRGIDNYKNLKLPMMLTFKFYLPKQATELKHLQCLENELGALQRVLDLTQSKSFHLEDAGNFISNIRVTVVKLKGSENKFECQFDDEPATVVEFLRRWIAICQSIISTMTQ
Briefly: SPR (Biacore 4000), antibody captured on anti-human IgG Fc, IL-2 30 nM to 1 nM; affinity estimate. Here is the method:
Antibody affinities were measured by SPR using the Biacore 4000 with a standard capture methodology. Briefly, anti-human IgG (Fc specific) from an anti-human antibody capture kit (Biacore) was immobilized onto spots 1, 2, 4, and 5 of all four flow cells of a CM-5 sensor chip by amine coupling according to the manufacturer's instructions. Running buffer was HBS-EP+ with 1% BSA. […] Data were analyzed using the Biacore 4000 Evaluation software.
These sequences were imported into vector NTI® (Lifetech) and aligned using the alignx tool.

We go through six molecules from patent US20210188969A1, “ANTIBODIES THAT BIND INTERLEUKIN-2 AND USES THEREOF” (published 2021).

Where only a bound is given, the exact number is not on record here.

Consider “IL-2/MAB602 complex (from UniProt P60568)”, for which, in assay [1], the EC50 of IL-2-induced phosphorylation of STAT5a,b, mouse primary NK cells, IL-2 pre-complexed with 100 nM antibody is 0.361 nM.
For the molecule MAB602 (antibody), in [2], the fold EC50 shift of IL-2-induced pSTAT5a,b, Human Primary NK cells (huRβγ) amounted to 10 fold and the fold EC50 shift of IL-2-induced pSTAT5a,b, NK92 (huRαβγ) turned out to be 959 fold. Further, the fold right-shift in EC50 of IL-2-induced CD69 on CD56bright NK cells, IL-2 pre-complexed with 200 nM antibody in assay [3] lay in the range of 5 to 10 fold. In [4], the fold EC50 shift of IL-2-induced proliferation, BaF3/IL-2 HuRβγ turned out to be 1.2 fold and the fold EC50 shift of IL-2-induced proliferation, NK92 (huRαβγ) was found to be 15 fold. The fold shift in EC50 of IL-2-induced phosphorylation of STAT5a,b, NK-92 cells, relative to isotype control in assay [5] stood at 1000 fold. Further, in assay [6], the fold EC50 shift of IL-2-induced pSTAT5a,b, CTLL-2 (muRαβγ) is 227 fold and the fold EC50 shift of IL-2-induced pSTAT5a,b, Mouse Primary NK cells (muβγ) turned out to be 3 fold. Also, the fold EC50 shift of IL-2-induced proliferation, CTLL-2 (muRαβγ) in assay [7] was found to be 18 fold. Besides, in [8], the fold right-shift in EC50 of IL-2-induced CD69 on Tregs, IL-2 pre-complexed with 200 nM antibody fell in the range of 5 to 10 fold.
isotype control (anti-KLH) (antibody): the EC50 of IL-2-induced phosphorylation of STAT5a,b, mouse primary NK cells, with isotype control in assay [9] amounted to 0.116 nM. In addition, in [5], the EC50 of IL-2-induced phosphorylation of STAT5a,b, NK-92 cells, with isotype control was 0.0009 nM.

B1: XPA.92.099 (antibody, V domains shown)
VH: QVQLVESGGGLVKPGRSLRLSCAASGFTFNRYAMSWVRQAPGKGLEWVAMISFDGGNQYYTDSVSGRFTISRDNSKTTLFLQMDSLRTEDTAVYYCVRSPAGDWVAYFDYWGQGTLVTVSS
VL: DIQMTQSPSSLSASIGDRVTIPCQASEDISNHLSWYQQKPGKAPKPLIFDASDLETGVPSRFSGSGSGTDFALTISSLRPDDFATYYCHQYHDYPSYTFGHGTKLEIKR
Take B1: in [2], the fold EC50 shift of IL-2-induced pSTAT5a,b, Human Primary NK cells (huRβγ) turned out to be 24 fold and the fold EC50 shift of IL-2-induced pSTAT5a,b, NK92 (huRαβγ) came out at 495 fold. Further, in assay [4], the fold EC50 shift of IL-2-induced proliferation, BaF3/IL-2 HuRβγ turned out to be 2.4 fold and the fold EC50 shift of IL-2-induced proliferation, NK92 (huRαβγ) is 22 fold. Further, in assay [6], the fold EC50 shift of IL-2-induced pSTAT5a,b, CTLL-2 (muRαβγ) turned out to be 293 fold and the fold EC50 shift of IL-2-induced pSTAT5a,b, Mouse Primary NK cells (muβγ) was found to be 17 fold. In addition, the fold EC50 shift of IL-2-induced proliferation, CTLL-2 (muRαβγ) in [7] came out at 54 fold.

B2: XPA.92.019 (antibody, V domains shown)
VH: EVQLVESGGGLVQPGRSLRLSCAASGFTFSYYGMHWVRQAPGKGLEWVADISNDGSNKYYADSVKGRFTISRDNSKTTLYLQMNSLRPEDTAVYYCATPYYDSSGLDYWGQGTLVTVSS
VL: SYELTQPPSVSVSPGQTARITCSGDALPKRFAYWYQQKAGQAPVLVIYEDNKRPSGIPETLSGSSSGTTATLTISGAQEEDEADYYCYSTDNTGGLWVFGGGTKLTVLG
For B2, in [2], the fold EC50 shift of IL-2-induced pSTAT5a,b, Human Primary NK cells (huRβγ) turned out to be 40 fold and the fold EC50 shift of IL-2-induced pSTAT5a,b, NK92 (huRαβγ) stood at 966 fold. In assay [4], the fold EC50 shift of IL-2-induced proliferation, BaF3/IL-2 HuRβγ is 5.2 fold and the fold EC50 shift of IL-2-induced proliferation, NK92 (huRαβγ) worked out at 33 fold. Moreover, in assay [6], the fold EC50 shift of IL-2-induced pSTAT5a,b, CTLL-2 (muRαβγ) worked out at 523 fold and the fold EC50 shift of IL-2-induced pSTAT5a,b, Mouse Primary NK cells (muβγ) came to 15 fold. Also, the fold EC50 shift of IL-2-induced proliferation, CTLL-2 (muRαβγ) in assay [7] is 130 fold. For the same molecule, the Kd with rat IL-2 is above 1000 nM. Also, the fold shift in EC50 of IL-2-induced CD69 on Tregs, IL-2 pre-complexed with 200 nM antibody in assay [8] fell in the range of 10 to 15 fold.

B3: XPA.92.042 (antibody, V domains shown)
VH: EVQLVQSGTEVKKAGDSLKISCKGSGYNFDTYWIGWVRQMPGRGLEWMGTIYPADSDTRYSPSFQGQVTMSADKSISTAYLQWGSLRASDTAMYYCARFSSSAYDIWGQGTMVTVSS
VL: SYELTQPPSVSVSPGQTARITCSGDALPRKFAYWYQQKSGQAPVLVIYQDTKRPSGIPERFSGSSSGTTVTLTISDVQAEDDADYYCQSADRSDSYVFGAGTKLTVLG
In the case of B3, in [2], the fold EC50 shift of IL-2-induced pSTAT5a,b, Human Primary NK cells (huRβγ) was determined as 41 fold and the fold EC50 shift of IL-2-induced pSTAT5a,b, NK92 (huRαβγ) came out at 1860 fold. Besides, in [4], the fold EC50 shift of IL-2-induced proliferation, BaF3/IL-2 HuRβγ is 5 fold and the fold EC50 shift of IL-2-induced proliferation, NK92 (huRαβγ) came out at 52 fold. Besides, in assay [6], the fold EC50 shift of IL-2-induced pSTAT5a,b, CTLL-2 (muRαβγ) was 793 fold and the fold EC50 shift of IL-2-induced pSTAT5a,b, Mouse Primary NK cells (muβγ) was determined as 14 fold. Also, the fold EC50 shift of IL-2-induced proliferation, CTLL-2 (muRαβγ) in assay [7] was 156 fold.

The Kd is the equilibrium constant for the complex coming apart.
